In PMC8197658:

Tests used:
SALL4A (full-length) = SALL4A (full-length) (Homo sapiens, UniProt Q9UJQ4 1-1053); experiment: EMSA
SALL4 ZFC4 = target: T1, SALL4 ZFC4 (UniProt Q9UJQ4 864-929); experiment: ITC
T1 sequence: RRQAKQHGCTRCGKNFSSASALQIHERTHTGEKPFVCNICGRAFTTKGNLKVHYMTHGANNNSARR

Sequence of SALL4A (full-length) (Q9UJQ4 whole entry): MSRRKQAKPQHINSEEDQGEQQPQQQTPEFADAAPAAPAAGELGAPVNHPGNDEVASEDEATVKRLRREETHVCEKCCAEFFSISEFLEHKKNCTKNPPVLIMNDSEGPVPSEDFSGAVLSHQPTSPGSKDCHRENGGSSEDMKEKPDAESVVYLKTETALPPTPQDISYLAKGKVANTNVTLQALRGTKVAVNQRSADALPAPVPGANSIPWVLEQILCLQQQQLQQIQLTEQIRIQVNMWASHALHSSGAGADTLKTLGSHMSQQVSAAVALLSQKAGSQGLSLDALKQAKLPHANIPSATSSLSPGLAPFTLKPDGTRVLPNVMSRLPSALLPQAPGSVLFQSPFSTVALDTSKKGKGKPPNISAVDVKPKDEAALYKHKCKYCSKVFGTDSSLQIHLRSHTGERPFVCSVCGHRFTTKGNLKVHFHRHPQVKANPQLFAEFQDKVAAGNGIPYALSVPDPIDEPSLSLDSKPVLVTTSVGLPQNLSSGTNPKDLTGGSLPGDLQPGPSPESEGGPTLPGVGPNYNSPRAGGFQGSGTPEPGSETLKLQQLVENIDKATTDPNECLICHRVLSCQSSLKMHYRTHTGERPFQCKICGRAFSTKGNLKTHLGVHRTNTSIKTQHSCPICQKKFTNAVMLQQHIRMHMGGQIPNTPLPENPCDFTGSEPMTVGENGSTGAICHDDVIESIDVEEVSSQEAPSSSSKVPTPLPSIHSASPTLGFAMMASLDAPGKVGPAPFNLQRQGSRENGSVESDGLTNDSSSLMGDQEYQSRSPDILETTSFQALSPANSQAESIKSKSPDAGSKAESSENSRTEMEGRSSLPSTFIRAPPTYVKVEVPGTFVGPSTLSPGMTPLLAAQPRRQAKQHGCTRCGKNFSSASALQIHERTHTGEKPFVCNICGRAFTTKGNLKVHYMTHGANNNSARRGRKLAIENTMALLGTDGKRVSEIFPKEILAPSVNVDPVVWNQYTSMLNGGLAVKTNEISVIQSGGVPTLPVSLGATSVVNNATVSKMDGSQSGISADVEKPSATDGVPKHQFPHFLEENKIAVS

B1: KDM3A EMSA WT oligo (dsDNA)
DNA 1: TCTTCATTTATCCTTCAAAA
DNA 2: TTTTGAAGGATAAATGAAGA
B1: binds (SALL4A (full-length)).

B2: KDM3A EMSA Mutant oligo (dsDNA)
DNA 1: TCTTCTTTTAACCTTCAAAA
DNA 2: TTTTGAAGGTTAAAAGAAGA
B2: no binding (SALL4A (full-length)).

B3: ITC Mutant oligo 1 (dsDNA)
DNA 1: GAGTCGCTAATG
DNA 2: CATTAGCGACTC
B3: no binding (SALL4 ZFC4).

B4: ITC Mutant oligo 2 (dsDNA)
DNA 1: GATAAACGCTTG
DNA 2: CAAGCGTTTATC
B4: no binding (SALL4 ZFC4).
